In paper doi:10.1101/2021.11.04.467292:

How the values were obtained:
[1] = molecular target: microtubules polymerised from bovine tubulin, paclitaxel-stabilised (bovine) (UniProt Q6B856); assay: two-MT assay
[2] = molecular target: microtubules polymerised from bovine tubulin, paclitaxel-stabilised (bovine) (UniProt Q6B856); assay: TIRF microscopy of Qdot-bound motor on immobilised microtubules
[3] = molecular target: KLIF motor domain lacking the N-terminal extension fused to GFP (Trypanosoma brucei); assay: gliding filament motility assay

For “KLIF motor domain construct (amino acids 1-672) fused to a C-terminal GFP (mClover3) tag (domain or fragment)”, the half-life of plus end to plus end tethering of two MTs by KLIF [1] was 1.7 min.

For “KLIF motor domain construct (amino acids 1-672) fused to a C-terminal biotin tag (domain or fragment)”, the half-life of association with MTs [2] was greater than 5 min.

Work on “microtubules polymerised from bovine tubulin, paclitaxel-stabilised (from UniProt Q6B856 1-445) (complex)” yielded a percent of filaments dissociated within 2.5 minutes [3] greater than 50%.
